In assay [1] the target is T1, DLL4 (DLL ECD His tag, R&D 1506-D4-050) (UniProt Q9NR61 27-529).
T1 construct: extracellular domain; bought
Put plainly: BIACORE (SPR), DVD-Ig against DLL4.

In another assay the target is T2, VEGF (UniProt P15692-4 27-191).
T2 construct: Bought reagent; also called vascular endothelial growth factor
Kind of assay: BIACORE SPR.

T2 sequence (P15692 other isoform, or with tags, fused parts or gaps limits assumed): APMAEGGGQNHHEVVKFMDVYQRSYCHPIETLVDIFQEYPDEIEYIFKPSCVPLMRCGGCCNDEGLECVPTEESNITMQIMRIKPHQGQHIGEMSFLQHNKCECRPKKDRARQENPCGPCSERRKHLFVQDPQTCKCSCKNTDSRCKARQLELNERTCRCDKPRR

B1: DVD488 (bispecific antibody, human IgG1, kappa)
heavy: not shown
light: DIQMTQSPSSLSASVGDRVTITCSASQDISNYLNWYQQKPGKAPKVLIYFTSSLHSGVPSRFSGSGSGTDFTLTISSLQPEDFATYYCQQYSTVPWTFGQGTKVEIKRTVAAPDIQMTQSSSYLSVSLGGRVTITCKASDHINNWLAWYQQKPGNAPRLLISGATSLETGVPSRFSGSGSGKDYTLSITSLQTEDVATYYCQQYWSIPLTFGAGTKLELKRTVAAPSVFIFPPSDEQLKSGTASVVCLLNNFYPREAKVQWKVDNALQSGNSQESVTEQDSKDSTYSLSSTLTLSKADYEKHKVYACEVTHQGLSSPVTKSFNRGEC
notes: DVD-Ig; N-term; VD VEGF (AB014), C-term; VD DLL4 (AB072); HC linker short, LC linker short; also called DVD-Ig DVD488; DVD488H
In assay [1], B1 showed a dissociation constant (Kd) of 0.418 nM, a dissociation rate constant (koff) of 6.62e-05 s⁻¹ and a kon of 159000 M⁻¹ s⁻¹.

B2: DVD473 (bispecific antibody, human IgG1, kappa)
heavy: not shown
light: DIQMTQSPSSLSASVGDRVTITCRASQDVSTAVAWYQQKPGKAPKLLIYSASFLYSGVPSRFSGSGSGTDFTLTISSLQPEDFATTYYCQQSYTGTVTFGQGTKVEIKRTVAAPSVFIFPPDIQMTQSPSSLSASVGDRVTITCRASQVIRRSLAWYQQKPGKAPKLLIYAASNLASGVPSRFSGSGSGTDFTLTISSLQPEDFATYYCQQSNTSPLTFGQGTKVEIKRTVAAPSVFIFPPSDEQLKSGTASVVCLLNNFYPREAKVQWKVDNALQSGNSQESVTEQDSKDSTYSLSSTLTLSKADYEKHKVYACEVTHQGLSSPVTKSFNRGEC
notes: DVD-Ig; N-term; VD DLL4 (AB015), C-term; VD VEGF (AB071); HC linker long, LC linker long; also called DVD-Ig DVD473; DVD473H
For B2, in assay [1], the affinity, expressed as Kd, was 0.716 nM; the koff is 0.000161 s⁻¹; the kon worked out at 226000 M⁻¹ s⁻¹.

B3: DVD518 (bispecific antibody, human IgG1, kappa, lambda)
heavy: not shown
light: DIQMTQSPSSLSASVGDRVTITCSASQDISNYLNWYQQKPGKAPKVLIYFTSSLHSGVPSRFSGSGSGTDFTLTISSLQPEDFATYYCQQYSTVPWTFGQGTKVEIKRTVAAPSVFIFPPQAVVTQESALTTSPGETVTLTCRSSTGAVTTSNYANWVQEKPDHLFTGLIGGTNNRAPGVPARFSGSLIGDKAALTITGAQTEDEAIYFCALWYSNHWVFGGGTKLTVLGQPKAAPSVTLFPPSSEELQANKATLVCLISDFYPGAVTVAWKADSSPVKAGVETTTPSKQSNNKYAASSYLSLTPEQWKSHRSYSCQVTHEGSTVEKTVAPTECS
notes: DVD-Ig; N-term; VD VEGF (AB014), C-term; VD DLL4 (AB073); HC linker long, LC linker long; also called DVD-Ig DVD518; DVD518H
In assay [1], B3 registered a Kd of 3.72 nM, a koff of 0.000454 s⁻¹ and an association rate constant (kon) of 122000 M⁻¹ s⁻¹.

B4: DVD530 (bispecific antibody, human IgG1, kappa, lambda, L234A L235A)
heavy: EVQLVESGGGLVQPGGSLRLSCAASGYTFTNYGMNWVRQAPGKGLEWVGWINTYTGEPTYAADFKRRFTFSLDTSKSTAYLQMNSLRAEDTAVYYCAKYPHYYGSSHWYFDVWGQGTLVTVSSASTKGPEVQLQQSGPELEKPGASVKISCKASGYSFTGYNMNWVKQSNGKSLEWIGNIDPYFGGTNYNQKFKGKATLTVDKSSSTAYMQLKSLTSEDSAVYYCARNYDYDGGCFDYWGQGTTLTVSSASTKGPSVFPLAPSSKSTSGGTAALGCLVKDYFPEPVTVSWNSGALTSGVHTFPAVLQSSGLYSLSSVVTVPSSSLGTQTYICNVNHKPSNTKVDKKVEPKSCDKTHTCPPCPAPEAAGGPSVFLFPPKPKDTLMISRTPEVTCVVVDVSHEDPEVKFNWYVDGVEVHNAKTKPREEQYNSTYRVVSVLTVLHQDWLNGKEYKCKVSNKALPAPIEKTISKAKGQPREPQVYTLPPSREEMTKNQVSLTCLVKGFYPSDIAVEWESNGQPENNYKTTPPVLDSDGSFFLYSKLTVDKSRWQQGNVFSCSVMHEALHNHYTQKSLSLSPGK
light: B3 light
notes: DVD-Ig; N-term; VD VEGF (AB014), C-term; VD DLL4 (AB073); HC linker short, LC linker long; also called DVD-Ig DVD530; DVD530H
As for B4, in assay [1], the Kd was determined as 5.38 nM, the off-rate constant (koff) turned out to be 0.00219 s⁻¹ and the on-rate constant (kon) came to 407000 M⁻¹ s⁻¹.

B5: DVD494 (bispecific antibody, human IgG1, kappa)
heavy: not shown
light: DIQMTQSPSSLSASVGDRVTITCSASQDISNYLNWYQQKPGKAPKVLIYFTSSLHSGVPSRFSGSGSGTDFTLTISSLQPEDFATYYCQQYSTVPWTFGQGTKVEIKRTVAAPSVFIFPPDIQMTQSSSYLSVSLGGRVTITCKASDHINNWLAWYQQKPGNAPRLLISGATSLETGVPSRFSGSGSGKDYTLSITSLQTEDVATYYCQQYWSIPLTFGAGTKLELKRTVAAPSVFIFPPSDEQLKSGTASVVCLLNNFYPREAKVQWKVDNALQSGNSQESVTEQDSKDSTYSLSSTLTLSKADYEKHKVYACEVTHQGLSSPVTKSFNRGEC
notes: DVD-Ig; N-term; VD VEGF (AB014), C-term; VD DLL4 (AB072); HC linker long, LC linker long; also called DVD-Ig DVD494; DVD494H
In assay [1], B5 came in with a Kd of 1.39 nM, an off-rate constant (koff) of 0.000183 s⁻¹ and a kon of 132000 M⁻¹ s⁻¹.

B6: DVD506 (bispecific antibody, human IgG1, kappa)
heavy: not shown
light: B5 light
notes: DVD-Ig; N-term; VD VEGF (AB014), C-term; VD DLL4 (AB072); HC linker short, LC linker long; also called DVD-Ig DVD506; DVD506H
In assay [1], B6 registered a dissociation constant (Kd) of 1.47 nM, an off-rate constant (koff) of 0.000104 s⁻¹ and an on-rate constant (kon) of 70700 M⁻¹ s⁻¹.

B7: DVD468 (bispecific antibody, human IgG1, kappa)
heavy: not shown
light: DIQMTQSPSSLSASVGDRVTITCRASQVIRRSLAWYQQKPGKAPKLLIYAASNLASGVPSRFSGSGSGTDFTLTISSLQPEDFATYYCQQSNTSPLTFGQGTKVEIKRTVAAPDIQMTQSPSSLSASVGDRVTITCRASQDVSTAVAWYQQKPGKAPKLLIYSASFLYSGVPSRFSGSGSGTDFTLTISSLQPEDFATTYYCQQSYTGTVTFGQGTKVEIKRTVAAPSVFIFPPSDEQLKSGTASVVCLLNNFYPREAKVQWKVDNALQSGNSQESVTEQDSKDSTYSLSSTLTLSKADYEKHKVYACEVTHQGLSSPVTKSFNRGEC
notes: DVD-Ig; N-term; AB071 (VEGF), C-term; AB015 (DLL4); HC linker short, LC linker short; also called DVD468H; DVD468L
On to B7, for which, in the assay with VEGF, the affinity, expressed as Kd, was 0.00148 nM; the koff turned out to be 1.74e-07 s⁻¹; the kon was 118000 M⁻¹ s⁻¹.

B8: DVD512 (bispecific antibody, human IgG1, lambda, L234A L235A)
heavy: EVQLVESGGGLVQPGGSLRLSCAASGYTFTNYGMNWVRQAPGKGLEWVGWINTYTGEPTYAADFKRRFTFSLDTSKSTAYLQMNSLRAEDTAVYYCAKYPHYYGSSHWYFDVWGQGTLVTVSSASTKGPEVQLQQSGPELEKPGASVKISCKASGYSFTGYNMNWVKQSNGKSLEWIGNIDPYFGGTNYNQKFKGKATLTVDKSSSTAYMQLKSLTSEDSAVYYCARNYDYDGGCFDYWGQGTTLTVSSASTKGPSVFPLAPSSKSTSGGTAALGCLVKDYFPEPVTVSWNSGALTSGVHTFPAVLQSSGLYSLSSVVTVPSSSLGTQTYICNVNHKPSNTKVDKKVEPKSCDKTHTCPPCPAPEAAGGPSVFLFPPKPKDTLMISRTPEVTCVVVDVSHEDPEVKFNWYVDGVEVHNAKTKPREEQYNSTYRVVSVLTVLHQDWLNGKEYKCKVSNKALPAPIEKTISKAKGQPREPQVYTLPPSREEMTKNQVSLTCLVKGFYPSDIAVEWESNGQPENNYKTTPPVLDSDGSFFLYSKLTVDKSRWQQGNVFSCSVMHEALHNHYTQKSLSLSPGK
light: DIQMTQSPSSLSASVGDRVTITCSASQDISNYLNWYQQKPGKAPKVLIYFTSSLHSGVPSRFSGSGSGTDFTLTISSLQPEDFATYYCQQYSTVPWTFGQGTKVEIKRTVAAPQAVVTQESALTTSPGETVTLTCRSSTGAVTTSNYANWVQEKPDHLFTGLIGGTNNRAPGVPARFSGSLIGDKAALTITGAQTEDEAIYFCALWYSNHWVFGGGTKLTVLGQPKAAPSVTLFPPSSEELQANKATLVCLISDFYPGAVTVAWKADSSPVKAGVETTTPSKQSNNKYAASSYLSLTPEQWKSHRSYSCQVTHEGSTVEKTVAPTECS
notes: DVD-Ig; N-term; VD VEGF (AB014), C-term; VD DLL4 (AB073); HC linker short, LC linker short; also called DVD-Ig DVD512; DVD512H
Take B8: in assay [1], the Kd stood at 2.94 nM, the off-rate constant (koff) was determined as 0.000757 s⁻¹ and the kon amounted to 258000 M⁻¹ s⁻¹.

B9: DVD524 (bispecific antibody, human IgG1, lambda)
heavy: not shown
light: B8 light
notes: DVD-Ig; N-term; VD VEGF (AB014), C-term; VD DLL4 (AB073); HC linker long, LC linker short; also called DVD-Ig DVD524; DVD524H
As to B9, in assay [1], the dissociation constant (Kd) turned out to be 9.45 nM, the koff came to 0.000877 s⁻¹ and the kon came out at 92800 M⁻¹ s⁻¹.

B10: DVD043 (bispecific antibody, human IgG1, kappa)
heavy: not shown
light: DIQMTQSPSSLSASVGDRVTITCSASQDISNYLNWYQQKPGKAPKVLIYFTSSLHSGVPSRFSGSGSGTDFTLTISSLQPEDFATYYCQQYSTVPWTFGQGTKVEIKRTVAAPDIQMTQSPSSLSASVGDRVTITCRASQDVSTAVAWYQQKPGKAPKLLIYSASFLYSGVPSRFSGSGSGTDFTLTISSLQPEDFATTYYCQQSYTGTVTFGQGTKVEIKRTVAAPSVFIFPPSDEQLKSGTASVVCLLNNFYPREAKVQWKVDNALQSGNSQESVTEQDSKDSTYSLSSTLTLSKADYEKHKVYACEVTHQGLSSPVTKSFNRGEC
notes: DVD-Ig; N-term; VD VEGF (AB014), C-term; VD DLL4 (AB015); HC linker short, LC linker short; also called DVD-Ig DVD043; DVD043H
With B10, in assay [1], the Kd stood at 8.4 nM, the off-rate constant (koff) came to 0.000281 s⁻¹ and the on-rate (kon) came to 33400 M⁻¹ s⁻¹.

B11: DVD476 (bispecific antibody, human IgG1, kappa)
heavy: not shown
light: B10 light
notes: DVD-Ig; N-term; VD VEGF (AB014), C-term; VD DLL4 (AB015); HC linker long, LC linker short; also called DVD-Ig DVD476; DVD476H
In assay [1], B11 displayed a Kd of 2.96 nM, a koff of 0.000167 s⁻¹ and an on-rate constant (kon) of 56300 M⁻¹ s⁻¹.

B12: DVD470 (bispecific antibody, human IgG1, kappa)
heavy: not shown
light: DIQMTQSPSSLSASVGDRVTITCSASQDISNYLNWYQQKPGKAPKVLIYFTSSLHSGVPSRFSGSGSGTDFTLTISSLQPEDFATYYCQQYSTVPWTFGQGTKVEIKRTVAAPSVFIFPPDIQMTQSPSSLSASVGDRVTITCRASQDVSTAVAWYQQKPGKAPKLLIYSASFLYSGVPSRFSGSGSGTDFTLTISSLQPEDFATTYYCQQSYTGTVTFGQGTKVEIKRTVAAPSVFIFPPSDEQLKSGTASVVCLLNNFYPREAKVQWKVDNALQSGNSQESVTEQDSKDSTYSLSSTLTLSKADYEKHKVYACEVTHQGLSSPVTKSFNRGEC
notes: DVD-Ig; N-term; VD VEGF (AB014), C-term; VD DLL4 (AB015); HC linker long, LC linker long; also called DVD-Ig DVD470; DVD470H
B12: in assay [1], the dissociation constant Kd was determined as 1.03 nM, the koff stood at 7.02e-05 s⁻¹ and the kon turned out to be 68400 M⁻¹ s⁻¹.

B13: DVD482 (bispecific antibody, human IgG1, kappa)
heavy: not shown
light: B12 light
notes: DVD-Ig; N-term; VD VEGF (AB014), C-term; VD DLL4 (AB015); HC linker short, LC linker long; also called DVD-Ig DVD482; DVD482H
Regarding B13, in assay [1], the Kd came to 2.08 nM, the koff was found to be 0.000232 s⁻¹ and the kon is 111000 M⁻¹ s⁻¹.

B14: DVD467 (bispecific antibody, human IgG1, kappa)
heavy: not shown
light: DIQMTQSPSSLSASVGDRVTITCRASQDVSTAVAWYQQKPGKAPKLLIYSASFLYSGVPSRFSGSGSGTDFTLTISSLQPEDFATTYYCQQSYTGTVTFGQGTKVEIKRTVAAPDIQMTQSPSSLSASVGDRVTITCRASQVIRRSLAWYQQKPGKAPKLLIYAASNLASGVPSRFSGSGSGTDFTLTISSLQPEDFATYYCQQSNTSPLTFGQGTKVEIKRTVAAPSVFIFPPSDEQLKSGTASVVCLLNNFYPREAKVQWKVDNALQSGNSQESVTEQDSKDSTYSLSSTLTLSKADYEKHKVYACEVTHQGLSSPVTKSFNRGEC
notes: DVD-Ig; N-term; VD DLL4 (AB015), C-term; VD VEGF (AB071); HC linker short, LC linker short; 2'; 3'; also called DVD-Ig DVD467; DVD467H
In assay [1], B14 had a dissociation constant Kd of 0.302 nM, a koff of 0.000177 s⁻¹ and a kon of 585000 M⁻¹ s⁻¹.

B15: DVD479 (bispecific antibody, human IgG1, kappa)
heavy: not shown
light: B14 light
notes: DVD-Ig; N-term; VD DLL4 (AB015), C-term; VD VEGF (AB071); HC linker long, LC linker short; also called DVD-Ig DVD479; DVD479H
On to B15, for which, in assay [1], binding was characterised by a dissociation constant (Kd) of 0.441 nM, the dissociation rate constant (koff) was 0.000174 s⁻¹ and the kon amounted to 395000 M⁻¹ s⁻¹.

(Values after patent publication US20100260668A1 (published 2010).)
